Data set [1] has as its target N-CEACAMFc (N-domain of murine CEACAM1^a linked to a carboxyl-terminal IgG1 Fc) (murine). Briefly: pull-down.
Data set [2] has the same target. Briefly: pull-down. This is another data set of the same source.
Target sequence in this assay (P31809 35-428): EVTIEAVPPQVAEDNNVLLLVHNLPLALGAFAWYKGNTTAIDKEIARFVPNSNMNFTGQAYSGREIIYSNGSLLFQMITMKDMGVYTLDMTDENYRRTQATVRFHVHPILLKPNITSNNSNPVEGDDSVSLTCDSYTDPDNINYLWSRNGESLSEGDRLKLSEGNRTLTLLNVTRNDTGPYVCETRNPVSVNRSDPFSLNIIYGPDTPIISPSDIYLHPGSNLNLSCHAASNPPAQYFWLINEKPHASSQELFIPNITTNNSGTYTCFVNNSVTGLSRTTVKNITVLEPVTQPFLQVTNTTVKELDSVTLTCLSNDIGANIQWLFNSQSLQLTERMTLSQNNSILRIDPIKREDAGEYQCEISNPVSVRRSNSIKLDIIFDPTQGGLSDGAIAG
Data set [3] deals with the molecule itself. Briefly: velocity sucrose gradient ultracentrifugation.

In data set [1], “Hetero-oligomer of S_(T212S/Y214S/Y216S) with wild-type S1_(330) (from UniProt P11225 14-1235; P11225 14-330) (complex)” came in with a 35S in the boxed band precipitated with N-CEACAMFc of 4330 cpm.
Same read-out and setting: under “S_(T212S/Y214S/Y216S) (full-length S of JHM strain with the indicated substitutions) (from UniProt P11225 14-1235) (natural protein)” stands 2140 cpm.

B1: S1 co-produced with N-CEACAMFc in 293 cells (domain or fragment)
chain: GYIGDFRCIQTVNYNGNNASAPSISTEAVDVSKGRGTYYVLDRVYLNATLLLTGYYPVDGSNYRNLALTGTNTLSLTWFKPPFLSEFNDGIFAKVQNLKTNTPTGATSYFPTIVIGSLFGNTSYTVVLEPYNNIIMASVCTYTICQLPYTPCKPNTNGNRVIGFWHTDVKPPICLLKRNFTFNVNAPWLYFHFYQQGGTFYAYYADKPSATTFLFSVYIGDILTQYFVLPFICTPTAGSTLAPLYWVTPLLKRQYLFNFNEKGVITSAVDCASSYISEIKCKTQSLLPSTGVYDLSGYTVQPVGVVYRRVPNLPDCKIEEWLTAKSVPSPLNWERRTFQNCNFNLSSLLRYVQAESLSCNNIDASKVYGMCFGSVSVDKFAIPRSRQIDLQIGNSGFLQTANYKIDTAATSCQLYYSLPKNNVTINNYNPSSWNRRYGFKVNDRCQIFANILLNGINSGTTCSTDLQLPNTEVATGVCVRYDLYGITGQGVFKEVKADYYNSWQALLYDVNGNLNGFRDLTTNKTYTIRSCYSGRVSAAYHKEAPEPALLYRNINCSYVFTNNISREENPLNYFDSYLGCVVNADNRTDEALPNCNLRMGAGLCVDYSKSRRARRSVSTGYRLTTFEPYMPMLVNDSVQSVGGLYEMQIPTNFTIGHHEEFIQIRAPKVTIDCAAFVCGDNAACRQQLVEYGSFCDNVNAILNEVNNLLDNMQLQVASALMQGVTISSRLPDGISGPIDDINFSPLLGCIGSTCAE
For the molecule B1, the ^35S-labeled S1:^35S-labeled N-CEACAMFc ratio in data set [2] is 3.4.

B2: S1 (769-residue S1 fragment of the MHV strain JHM spike protein, produced independently from cDNA) (domain or fragment)
chain: GYIGDFRCIQTVNYNGNNASAPSISTEAVDVSKGLGTYYVLDRVYLNATLLLTGYYPVDGSNYRNLALTGTNTLSLTWFKPPFLSEFNDGIFAKVQNLKTNTPTGATSYFPTIVIGSLFGNTSYTVVLEPYNNIIMASVCTYTICQLPYTPCKPNTNGNRVIGFWHTDVKPPICLLKRNFTFNVNAPWLYFHFYQQGGTFYAYYADKPSATTFLFSVYIGDILTQYFVLPFICTPTAGSTLLPLYWVTPLLKRQYLFNFNEKGVITSAVDCASSYISEIKCKTQSLLPSTGVYDLSGYTVQPVGVVYRRVPNLPDCKIEEWLTAKSVPSPLNWERRTFQNCNFNLSSLLRYVQAESLSCNNIDASKVYGMCFGSVSVDKFAIPRSRQIDLQIGNSGFLQTANYKIDTAATSCQLYYSLPKNNVTINNYNPSSWNRRYGFNDAGVFGKSKHDVAYAQQCFTVRPSYCPCAQPDIVSACTSQTKPMSAYCPTGTIHRECSLWNGPHLRSARVGSGTYTCECTCKPNPFDTYDLRCGQIKTIVNVGDHCEGLGVLEDKCGNSDPHKGCSCANDSFIGWSHDTCLVNDRCQIFANILLNGINSGTTCSTDLQLPNTEVATGVCVRYDLYGITGQGVFKEVKADYYNSWQALLYDVNGNLNGFRDLTTNKTYTIRSCYSGRVSAAYHKEAPEPALLYRNINCSYVFTNNISREENPLNYFDSYLGCVVNADNRTDEALPNCDLRMGAGLCVDYSKSRRARR
Usually stoichiometry N stands for a count of units in the complex or per binding partner. For the molecule B2, the “stoichiometry N” value in data set [3] turned out to be 2.

The values are drawn from paper PMC8060896 (The Journal of Biological Chemistry, 2002).
